This data set deals with the molecule itself. The data set can be described thus: single molecule subunit counting.

As usually defined, the stoichiometry N is the number of molecules, sites or subunits per partner or assembly.

B1: C-terminally GFP-tagged mGluR2 (receptor, rat, UniProt P31421 19-872, looked up)
chain: EGPAKKVLTLEGDLVLGGLFPVHQKGGPAEECGPVNEHRGIQRLEAMLFALDRINRDPHLLPGVRLGAHILDSCSKDTHALEQALDFVRASLSRGADGSRHICPDGSYATHSDAPTAVTGVIGGSYSDVSIQVANLLRLFQIPQISYASTSAKLSDKSRYDYFARTVPPDFFQAKAMAEILRFFNWTYVSTVASEGDYGETGIEAFELEARARNICVATSEKVGRAMSRAAFEGVVRALLQKPSARVAVLFTRSEDARELLAATQRLNASFTWVASDGWGALESVVAGSERAAEGAITIELASYPISDFASYFQSLDPWNNSRNPWFREFWEERFHCSFRQRDCAAHSLRAVPFEQESKIMFVVNAVYAMAHALHNMHRALCPNTTHLCDAMRPVNGRRLYKDFVLNVKFDAPFRPADTDDEVRFDRFGDGIGRYNIFTYLRAGSGRYRYQKVGYWAEGLTLDTSFIPWASPSAGPLPASRCSEPCLQNEVKSVQPGEVCCWLCIPCQPYEYRLDEFTCADCGLGYWPNASLTGCFELPQEYIRWGDAWAVGPVTIACLGALATLFVLGVFVRHNATPVVKASGRELCYILLGGVFLCYCMTFVFIAKPSTAVCTLRRLGLGTAFSVCYSALLTKTNRIARIFGGAREGAQRPRFISPASQVAICLALISGQLLIVAAWLVVEAPGTGKETAPERREVVTLRCNHRDASMLGSLAYNVLLIALCTLYAFKTRKCPENFNEAKFIGFTMYTTCIIWLAFLPIFYVTSSDYRVQTTTMCVSVSLSGSVVLGCLFAPKLHIILFQPQKNVVSHRAPTSRFGSAAPRASANLGQGSGSQFVPTVCNGREVVDSTTSSL
In the case of B1, the “stoichiometry N” value came to 2.

The values are drawn from publication PMC5053906 (Neuron, 2016).
